Reference: patent US20210340238A1 (SCHOLAR ROCK, published 2021)

Tests used:
[1] = molecular target: T1, recombinant human LRRC33-proTGFβ1 complex (human, UniProt Q86YC3 19-650; P01137 30-390, limits assumed); experiment: Octet (BLI); IgG1 from yeast
T1 construct: Purified complex of the Octet and MSD-SET assays, biotinylated; also called hLRRC33; hLRRC33-proTGFβ1

[2] = molecular target: T2, recombinant human GARP-proTGFβ1 complex (human, UniProt Q14392 20-627; P01137 30-390, limits assumed); experiment: Octet (BLI); IgG1 from yeast
T2 construct: Purified complex of the Octet and MSD-SET assays, biotinylated; also called hGARP; hGARP-proTGFβ1

[3] = molecular target: T3, recombinant human LTBP3-proTGFβ1 complex (human, UniProt Q9NS15 44-1303; P01137 30-390, limits assumed); experiment: Octet (BLI); IgG1 from yeast
T3 construct: Biotinylated in the Octet and MSD-SET assays; In the potency assay it was made by cells transfected with human LTBP3 and proTGFβ1 plasmids and deposited in the ECM; also called hLTBP3; hLTBP3-proTGFβ1

[4] = molecular target: T4, recombinant human LTBP1-proTGFβ1 complex (human, UniProt Q14766 347-1721; P01137 30-390); experiment: Octet (BLI); IgG1 from yeast
T4 construct: Biotinylated in the Octet and MSD-SET assays; In the potency assay it was made by cells transfected with human LTBP1S and proTGFβ1 plasmids and deposited in the ECM; also called hLTBP1; hLTBP1-proTGFβ1

[5] = molecular target: human LRRC33-proTGFβ1 complex presented on the cell surface (human, UniProt Q86YC3 19-692; P01137 30-390); experiment: cell-based or functional assay
[6] = molecular target: human GARP-proTGFβ1 complex presented on the cell surface (human, UniProt Q14392 20-662; P01137 30-390); experiment: cell-based or functional assay
[7] = molecular target: T3, recombinant human LTBP3-proTGFβ1 complex; experiment: cell-based or functional assay
[8] = molecular target: T4, recombinant human LTBP1-proTGFβ1 complex; experiment: cell-based or functional assay
[9] = molecular target: T1, recombinant human LRRC33-proTGFβ1 …; experiment: MSD-SET; IgG4 from mammalian cells
[10] = molecular target: T2, recombinant human GARP-proTGFβ1 complex; experiment: MSD-SET; IgG4 from mammalian cells
[11] = molecular target: T3, recombinant human LTBP3-proTGFβ1 complex; experiment: MSD-SET; IgG4 from mammalian cells
[12] = molecular target: T4, recombinant human LTBP1-proTGFβ1 complex; experiment: MSD-SET; IgG4 from mammalian cells

T4 sequence (Q14766 347-1721 limits assumed, chain 1 of 2): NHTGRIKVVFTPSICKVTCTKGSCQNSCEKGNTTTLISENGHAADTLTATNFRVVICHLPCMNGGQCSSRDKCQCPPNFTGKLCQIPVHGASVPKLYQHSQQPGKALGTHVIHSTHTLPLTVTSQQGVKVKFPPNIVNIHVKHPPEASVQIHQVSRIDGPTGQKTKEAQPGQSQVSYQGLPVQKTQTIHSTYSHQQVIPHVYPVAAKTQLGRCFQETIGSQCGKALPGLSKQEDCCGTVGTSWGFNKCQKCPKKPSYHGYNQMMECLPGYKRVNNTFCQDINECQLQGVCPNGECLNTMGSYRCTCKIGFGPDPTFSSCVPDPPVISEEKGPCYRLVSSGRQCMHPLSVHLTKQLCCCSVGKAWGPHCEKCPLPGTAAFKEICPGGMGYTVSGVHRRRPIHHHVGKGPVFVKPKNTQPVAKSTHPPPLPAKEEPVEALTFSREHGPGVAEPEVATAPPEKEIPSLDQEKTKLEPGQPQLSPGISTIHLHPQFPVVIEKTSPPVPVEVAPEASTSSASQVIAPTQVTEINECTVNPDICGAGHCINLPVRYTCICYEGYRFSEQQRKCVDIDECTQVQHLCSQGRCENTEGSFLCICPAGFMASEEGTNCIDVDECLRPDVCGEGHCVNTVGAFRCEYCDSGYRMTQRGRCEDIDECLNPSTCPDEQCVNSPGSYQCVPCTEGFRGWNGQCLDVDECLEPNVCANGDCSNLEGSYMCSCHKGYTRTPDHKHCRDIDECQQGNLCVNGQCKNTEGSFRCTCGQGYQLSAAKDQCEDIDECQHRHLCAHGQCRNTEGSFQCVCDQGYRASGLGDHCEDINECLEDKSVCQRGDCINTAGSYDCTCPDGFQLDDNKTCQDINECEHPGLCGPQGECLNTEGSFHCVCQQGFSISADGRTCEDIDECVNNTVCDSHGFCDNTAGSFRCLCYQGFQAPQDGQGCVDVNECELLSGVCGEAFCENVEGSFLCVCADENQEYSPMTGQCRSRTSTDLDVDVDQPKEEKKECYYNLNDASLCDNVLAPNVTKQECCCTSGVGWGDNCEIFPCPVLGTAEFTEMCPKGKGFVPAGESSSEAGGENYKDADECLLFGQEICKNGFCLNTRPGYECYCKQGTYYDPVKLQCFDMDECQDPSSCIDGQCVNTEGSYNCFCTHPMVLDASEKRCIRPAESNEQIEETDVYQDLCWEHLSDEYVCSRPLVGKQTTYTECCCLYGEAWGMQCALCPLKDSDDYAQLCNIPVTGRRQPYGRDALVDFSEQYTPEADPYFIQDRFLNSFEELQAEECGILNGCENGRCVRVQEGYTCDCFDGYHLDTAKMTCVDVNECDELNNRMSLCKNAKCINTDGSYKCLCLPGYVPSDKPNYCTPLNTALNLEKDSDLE
T4 sequence (P01137 30-390 limits assumed, chain 2 of 2): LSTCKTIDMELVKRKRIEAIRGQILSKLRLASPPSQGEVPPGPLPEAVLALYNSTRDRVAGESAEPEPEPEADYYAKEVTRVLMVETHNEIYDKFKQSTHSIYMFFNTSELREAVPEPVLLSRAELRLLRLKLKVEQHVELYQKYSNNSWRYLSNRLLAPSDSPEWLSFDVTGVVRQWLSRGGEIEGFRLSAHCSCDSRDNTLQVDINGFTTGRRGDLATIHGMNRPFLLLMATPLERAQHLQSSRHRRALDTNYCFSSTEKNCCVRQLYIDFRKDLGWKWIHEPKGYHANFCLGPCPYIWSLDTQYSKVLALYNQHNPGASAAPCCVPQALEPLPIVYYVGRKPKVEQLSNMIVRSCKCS
T3 sequence (Q9NS15 44-1303 limits assumed, chain 1 of 2): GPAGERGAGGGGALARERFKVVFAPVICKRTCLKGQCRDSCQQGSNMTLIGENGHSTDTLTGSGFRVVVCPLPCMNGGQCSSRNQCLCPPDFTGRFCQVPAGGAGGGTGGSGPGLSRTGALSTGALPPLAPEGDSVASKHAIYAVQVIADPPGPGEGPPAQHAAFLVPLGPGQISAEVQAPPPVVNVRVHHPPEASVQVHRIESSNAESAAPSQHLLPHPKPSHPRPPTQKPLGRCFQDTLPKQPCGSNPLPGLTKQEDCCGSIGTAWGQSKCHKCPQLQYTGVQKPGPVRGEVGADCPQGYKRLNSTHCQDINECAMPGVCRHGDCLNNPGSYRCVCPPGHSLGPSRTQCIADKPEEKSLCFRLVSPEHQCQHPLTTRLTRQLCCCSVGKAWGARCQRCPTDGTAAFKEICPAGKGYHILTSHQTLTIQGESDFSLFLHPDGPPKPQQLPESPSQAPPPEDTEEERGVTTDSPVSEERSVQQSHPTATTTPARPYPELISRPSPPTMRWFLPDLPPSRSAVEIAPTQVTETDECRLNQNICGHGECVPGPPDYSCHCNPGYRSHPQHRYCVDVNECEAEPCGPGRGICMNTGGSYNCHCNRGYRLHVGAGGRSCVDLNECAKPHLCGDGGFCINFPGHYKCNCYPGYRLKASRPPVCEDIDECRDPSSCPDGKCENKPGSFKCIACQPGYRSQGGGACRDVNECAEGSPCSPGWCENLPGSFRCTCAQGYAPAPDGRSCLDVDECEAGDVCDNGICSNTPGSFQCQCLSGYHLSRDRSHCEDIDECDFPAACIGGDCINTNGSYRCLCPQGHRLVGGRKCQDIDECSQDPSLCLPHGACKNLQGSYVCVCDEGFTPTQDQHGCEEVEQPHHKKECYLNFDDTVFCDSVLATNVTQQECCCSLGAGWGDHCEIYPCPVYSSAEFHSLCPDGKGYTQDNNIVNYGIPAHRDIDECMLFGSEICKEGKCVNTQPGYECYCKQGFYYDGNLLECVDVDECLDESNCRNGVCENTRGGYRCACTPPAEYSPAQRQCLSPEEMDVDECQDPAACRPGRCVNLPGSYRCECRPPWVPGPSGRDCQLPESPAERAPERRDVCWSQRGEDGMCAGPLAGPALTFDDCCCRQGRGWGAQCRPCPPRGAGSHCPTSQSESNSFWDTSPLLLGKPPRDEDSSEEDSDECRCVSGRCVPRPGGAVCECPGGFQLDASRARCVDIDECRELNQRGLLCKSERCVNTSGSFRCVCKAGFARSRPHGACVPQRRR
T3 sequence (P01137 30-390 limits assumed, chain 2 of 2): as the sequence (P01137 30-390 limits assumed, chain 2 of 2) above
T2 sequence (Q14392 20-627 limits assumed, chain 1 of 2): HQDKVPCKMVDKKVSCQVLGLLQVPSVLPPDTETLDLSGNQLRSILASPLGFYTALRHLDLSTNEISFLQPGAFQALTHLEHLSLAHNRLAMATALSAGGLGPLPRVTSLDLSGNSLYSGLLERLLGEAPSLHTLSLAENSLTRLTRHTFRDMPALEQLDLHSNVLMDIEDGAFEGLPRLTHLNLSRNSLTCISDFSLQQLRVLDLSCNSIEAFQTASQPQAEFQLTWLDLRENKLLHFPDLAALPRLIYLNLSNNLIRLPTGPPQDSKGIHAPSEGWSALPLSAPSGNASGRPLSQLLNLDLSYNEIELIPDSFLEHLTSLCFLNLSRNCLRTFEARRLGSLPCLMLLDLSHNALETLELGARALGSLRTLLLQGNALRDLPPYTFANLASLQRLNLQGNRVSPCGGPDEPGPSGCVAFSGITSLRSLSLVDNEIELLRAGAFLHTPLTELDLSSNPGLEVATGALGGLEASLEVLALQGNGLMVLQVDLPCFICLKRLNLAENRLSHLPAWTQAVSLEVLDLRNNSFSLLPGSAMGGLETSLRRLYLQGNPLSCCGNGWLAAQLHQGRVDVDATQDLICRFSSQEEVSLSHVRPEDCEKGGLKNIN
T2 sequence (P01137 30-390 limits assumed, chain 2 of 2): as the sequence (P01137 30-390 limits assumed, chain 2 of 2) above
T1 sequence (Q86YC3 19-650 limits assumed, chain 1 of 2): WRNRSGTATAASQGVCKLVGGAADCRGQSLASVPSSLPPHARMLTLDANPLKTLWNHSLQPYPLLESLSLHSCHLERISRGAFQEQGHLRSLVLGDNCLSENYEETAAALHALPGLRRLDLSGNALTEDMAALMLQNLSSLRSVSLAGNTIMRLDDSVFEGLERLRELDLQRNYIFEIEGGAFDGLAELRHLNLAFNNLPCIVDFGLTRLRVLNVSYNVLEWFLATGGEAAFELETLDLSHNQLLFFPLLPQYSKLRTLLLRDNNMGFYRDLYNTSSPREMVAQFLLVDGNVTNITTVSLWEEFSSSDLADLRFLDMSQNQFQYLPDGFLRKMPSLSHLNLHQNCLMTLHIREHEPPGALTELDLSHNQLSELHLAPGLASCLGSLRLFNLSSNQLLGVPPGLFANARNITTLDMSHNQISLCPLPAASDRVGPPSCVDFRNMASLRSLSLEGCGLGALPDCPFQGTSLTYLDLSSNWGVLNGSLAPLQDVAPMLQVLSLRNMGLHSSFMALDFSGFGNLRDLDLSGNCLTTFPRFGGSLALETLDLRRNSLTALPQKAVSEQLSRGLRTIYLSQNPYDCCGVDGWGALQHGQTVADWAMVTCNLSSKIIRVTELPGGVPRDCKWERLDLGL
T1 sequence (P01137 30-390 limits assumed, chain 2 of 2): as the sequence (P01137 30-390 limits assumed, chain 2 of 2) above

Kd [1]: 8.52 nM
Kd [2]: 17.3 nM
Kd [3]: 0.459 nM
Kd [4]: 0.47 nM
IC50 (nM), cell-based potency assay, CAGA12 luciferase reporter [5]: 0.858 nM
IC50 (nM), cell-based potency assay, CAGA12 luciferase reporter [6]: 0.981 nM
IC50 (nM), cell-based potency assay, CAGA12 luciferase reporter [7]: 10.4 nM
IC50 (nM), cell-based potency assay, CAGA12 luciferase reporter [8]: 24.3 nM
Kd [9]: 35 nM
Kd [10]: 28 nM
Kd [11]: 16.2 nM
Kd [12]: 13 nM
B1: Ab3 (antibody, V domains shown)
VH: EVQLLESGGGLVQPGGSLRLSCAASGFTFRNYAMSWVRQAPGKGLEWVSSISGSGGATYYADSVKGRFTISRDNSKNTLYLQMNSLRAEDTAVYYCARVSSGHWDFDYWGQGTLVTVSS
VL: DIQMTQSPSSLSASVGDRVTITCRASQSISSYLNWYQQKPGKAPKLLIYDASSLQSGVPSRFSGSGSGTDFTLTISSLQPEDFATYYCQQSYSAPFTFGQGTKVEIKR
